Test results as given in US20230149462A1 (JUNO THERAPEUTICS, published 2023).

T1: human BCMA (human, UniProt Q02223 1-54, limits assumed)
T1 construct: also called B-cell maturation antigen; human BCMA polypeptide
T1 sequence: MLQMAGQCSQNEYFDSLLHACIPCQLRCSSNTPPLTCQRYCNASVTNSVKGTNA


Each binder was assayed against T1, human BCMA (assay: CLIPS peptide epitope mapping (Pepscan)).
Description: Epitopes recognized, e.g., specifically bound by exemplary anti-BCMA scFv clones, were determined based on full discontinuous epitope mapping by Chemical Linkage of Peptides onto Scaffolds (CLIPS; Pepscan Presto BV, Lelystad, The Netherlands; see, e.g., Timmerman et al., (2007) J. Mol. Recognit. 20: 283-329). […] In some aspects, such antibodies recognize a non-linear or linear epitope including residues of such peptide of SEQ ID NO: 160, and in some aspects recognize a non-linear epitope further including residues of CIPCQLR (set forth in SEQ ID NO:159), […] and/or SVTNSVK (set forth in SEQ ID NO:161).

| Binder | binding result |
| --- | --- |
| BCMA-52-scFv-mFc (Fc fusion, not shown: mFc portion named in the label) SYELTQPPSASGTPGQRVTMSCSGTSSNIGSHSVNWYQQLPGTAPKLLIYTNNQRPSGVPDRFSGSKSGTSASLAISGLQSEDEADYYCAAWDGSLNGLVFGGGTKLTVLGSRGGGGSGGGGSGGGGSLEMAEVQLVQSGAEVKKPGESLKISCKGSGYSFTSYWIGWVRQMPGKGLEWMGIIYPGDSDTRYSPSFQGHVTISADKSISTAYLQWSSLKASDTAMYYCARYSGSFDNWGQGTLVTVSS | binds |
| BCMA-55-scFv (scFv, also called BCMA-55-scFV-mFc) scFv: QSALTQPASVSASPGQSIAISCTGTSSDVGWYQQHPGKAPKLMIYEDSKRPSGVSNRFSGSKSGNTASLTISGLQAEDEADYYCSSNTRSSTLVFGGGTKLTVLGSRGGGGSGGGGSGGGGSLEMAEVQLVQSGAEMKKPGASLKLSCKASGYTFIDYYVYWMRQAPGQGLESMGWINPNSGGTNYAQKFQGRVTMTRDTSISTAYMELSRLRSDDTAMYYCARSQRDGYMDYWGQGTLVTVSS | binds |
| BCMA-26 scFv (scFv) scFv: EVQLVESGGGLVKPGGSLRLSCAASGFTFSDYYMSWIRQAPGKGLEWVSYISSSGSTIYYADSVKGRFTISRDNAKNSLYLQMNSLRAEDTAVYYCAKVDGPPSFDIWGQGTMVTVSSGGGGSGGGGSGGGGSSYVLTQPPSVSVAPGQTARITCGANNIGSKSVHWYQQKPGQAPMLVVYDDDDRPSGIPERFSGSNSGNTATLTISGVEAGDEADYFCHLWDRSRDHYVFGTGTKLTVL | binds |
| BCMA-23 scFv (scFv) scFv: EVQLVESGGGLVKPGGSLRLSCAASGFTFSDYYMSWIRQAPGKGLEWVSYISSSGSTIYYADSVKGRFTISRDNAKNSLYLQMNSLRAEDTAVYYCAKVDGDYTEDYWGQGTLVTVSSGGGGSGGGGSGGGGSQSALTQPASVSGSPGQSITISCTGSSSDVGKYNLVSWYQQPPGKAPKLIIYDVNKRPSGVSNRFSGSKSGNTATLTISGLQGDDEADYYCSSYGGSRSYVFGTGTKVTVL | binds |
| BCMA-25 scFv (scFv) scFv: EVQLVQSGGGLVQPGRSLRLSCTASGFTFGDYAMSWFRQAPGKGLEWVGFIRSKAYGGTTEYAASVKGRFTISRDDSKSIAYLQMNSLKTEDTAVYYCAAWSAPTDYWGQGTLVTVSSGGGGSGGGGSGGGGSDIQMTQSPAFLSASVGDRVTVTCRASQGISNYLAWYQQKPGNAPRLLIYSASTLQSGVPSRFRGTGYGTEFSLTIDSLQPEDFATYYCQQSYTSRQTFGPGTRLDIK | binds |
